Values belong to the substance of their own block, whether it stands above or below them.
What was measured:
[1] = molecular target: MBP-fused CapH (I99M) mutant (E. coli MS115-1); assay: SEC-MALS
[2] = molecular target: CapH C-terminal domain (residues 67-107), crystallised (E. coli MS115-1); assay: crystal structure
[3] = molecular target: CapH C-terminal domain (residues 67-107) with Ile99 to Met mutation, crystallised (E. coli MS115-1); assay: crystal structure

stoichiometry N [1]: 2
Substance: MBP-fused CapH (I99M) mutant (natural protein)

stoichiometry N [2]: 4
Substance: CapH C-terminal domain (residues 67-107), crystallised (domain or fragment)

stoichiometry N [3]: 2
Substance: CapH C-terminal domain (residues 67-107) with Ile99 to Met mutation, crystallised (domain or fragment)
